This data set concerns the molecule itself. As to the kind of experiment: dynamic light scattering, self-association.

B1: recombinant wild-type MHV nsp15 protein, SUMO-fusion protein purified from E. coli (enzyme)
chain: SLENVVYNLVNAGHFDGRAGELPCAVIGEKVIAKIQNEDVVVFKNNTPFPTNVAVELFAKRSIRPHPELKLFRNLNIDVCWSHVLWDYAKDSVFCSSTYKVCKYTDLQCIESLNVLFDGRDNGALEAFKKCRNGVYINTTKIKSLSMIKGPQRADLNGVVVEKVGDSDVEFWFAVRKDGDDVIFSRTGSLEPSHYRSPQGNPGGNRVGDLSGNEALARGTIFTQSRLLSSFTPRSEMEKDFMDLDDDVFIAKYSLQDYAFEHVVYGSFNQKIIGGLHLLIGLARRQQKSNLVIQEFVTYDSSIHSYFITDENSGSSKSVCTVIDLLLDDFVDIVKSLNLKCVSKVVNVNVDFKDFQFMLWCNEEKVMTFYPRLQ
notes: domain: nsp15; also called WT nsp15; WT MHV Nsp15; not shown: His-SUMO tag from the pET-His-SUMO vector
Regarding B1, the binding result was “binds”.
